US10501734B2, “Compositions and methods of use thereof for making polypeptides with many instances of nonstandard amino acids” (Yale University, priority 2014, dated 2019)
Non-standard residues stand in square brackets, D forms with d. Phe(4-N3) = [N-]=[N+]=Nc1ccc(C[C@H](N)C(=O)O)cc1

Biological target: BSA (Bos taurus, UniProt P02769)
Assay: Binding to BSA coated agarose beads, GFP fluorescence
Details: palmitic acid conjugated; 30 vs. 1 pAzF instances
Description: When supplied with insufficient amounts of alkyne (a ratio of 0.125, 0.25 and 0.5 alkyne:azide), a partial shift was observed as well as a “smear” of the protein band that signifies stochastic reaction of less than 30 sites. In contrast, when sufficient alkyne was supplied, a sharp band is apparent with a consistent size shift compared with the unreacted control. Next, ELP-GFP containing either 30 azide groups or a single azide group and 30 tyrosine groups were contacted with BSA coated agarose beads. The beads were subsequently washed and the amount of protein bound to the beads was measured via GFP fluorescence. The results are illustrated in FIG. 11.

Sequence of BSA (P02769 25-607): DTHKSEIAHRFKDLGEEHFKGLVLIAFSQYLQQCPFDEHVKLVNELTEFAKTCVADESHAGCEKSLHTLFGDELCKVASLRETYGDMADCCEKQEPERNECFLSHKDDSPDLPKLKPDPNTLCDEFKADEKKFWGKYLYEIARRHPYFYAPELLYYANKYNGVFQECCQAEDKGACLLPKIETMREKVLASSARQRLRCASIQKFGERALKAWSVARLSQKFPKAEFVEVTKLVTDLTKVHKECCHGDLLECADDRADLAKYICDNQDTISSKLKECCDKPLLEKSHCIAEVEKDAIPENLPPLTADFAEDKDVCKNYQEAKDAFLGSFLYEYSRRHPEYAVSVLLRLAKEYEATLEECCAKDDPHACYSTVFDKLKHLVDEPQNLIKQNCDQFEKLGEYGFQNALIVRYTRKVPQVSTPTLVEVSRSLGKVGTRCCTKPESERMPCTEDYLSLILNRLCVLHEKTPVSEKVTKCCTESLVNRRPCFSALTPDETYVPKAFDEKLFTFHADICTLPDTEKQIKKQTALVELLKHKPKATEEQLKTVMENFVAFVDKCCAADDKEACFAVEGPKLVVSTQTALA

- BSA binding: improved BSA binding
B1: ELPs containing 30 pAzF nsAAs: ELP(30TAG)-GFP with 30 pAzF conjugated by click reaction to palmitic acid-alkyne (conjugate)
chain: SKGPGVPGGGVPGAGVPG[Phe(4-N3)](palmitic acid‑alkyne)GVPGGGVPGAGVPG[Phe(4-N3)](palmitic acid‑alkyne)GVPGGGVPGAGVPG[Phe(4-N3)](palmitic acid‑alkyne)GVPGGGVPGAGVPG[Phe(4-N3)](palmitic acid‑alkyne)GVPGGGVPGAGVPG[Phe(4-N3)](palmitic acid‑alkyne)GVPGGGVPGAGVPG[Phe(4-N3)](palmitic acid‑alkyne)GVPGGGVPGAGVPG[Phe(4-N3)](palmitic acid‑alkyne)GVPGGGVPGAGVPG[Phe(4-N3)](palmitic acid‑alkyne)GVPGGGVPGAGVPG[Phe(4-N3)](palmitic acid‑alkyne)GVPGGGVPGAGVPG[Phe(4-N3)](palmitic acid‑alkyne)GVPGGGVPGAGVPG[Phe(4-N3)](palmitic acid‑alkyne)GVPGGGVPGAGVPG[Phe(4-N3)](palmitic acid‑alkyne)GVPGGGVPGAGVPG[Phe(4-N3)](palmitic acid‑alkyne)GVPGGGVPGAGVPG[Phe(4-N3)](palmitic acid‑alkyne)GVPGGGVPGAGVPG[Phe(4-N3)](palmitic acid‑alkyne)GVPGGGVPGAGVPG[Phe(4-N3)](palmitic acid‑alkyne)GVPGGGVPGAGVPG[Phe(4-N3)](palmitic acid‑alkyne)GVPGGGVPGAGVPG[Phe(4-N3)](palmitic acid‑alkyne)GVPGGGVPGAGVPG[Phe(4-N3)](palmitic acid‑alkyne)GVPGGGVPGAGVPG[Phe(4-N3)](palmitic acid‑alkyne)GVPGGGVPGAGVPG[Phe(4-N3)](palmitic acid‑alkyne)GVPGGGVPGAGVPG[Phe(4-N3)](palmitic acid‑alkyne)GVPGGGVPGAGVPG[Phe(4-N3)](palmitic acid‑alkyne)GVPGGGVPGAGVPG[Phe(4-N3)](palmitic acid‑alkyne)GVPGGGVPGAGVPG[Phe(4-N3)](palmitic acid‑alkyne)GVPGGGVPGAGVPG[Phe(4-N3)](palmitic acid‑alkyne)GVPGGGVPGAGVPG[Phe(4-N3)](palmitic acid‑alkyne)GVPGGGVPGAGVPG[Phe(4-N3)](palmitic acid‑alkyne)GVPGGGVPGAGVPG[Phe(4-N3)](palmitic acid‑alkyne)GVPGGGVPGAGVPG[Phe(4-N3)](palmitic acid‑alkyne)GPGGGG-{GFP}
modifications: also: conjugated by click reaction
notes: ELP(30TAG)-GFP with 30 pAzF conjugated by click reaction to palmitic acid-alkyne
